One substance from patent US20200207829 can be followed below.

The test system of this data set is TMt-NES-dCas9VP64.

Regarding TEVC151A, the EYFP activation score result is recorded as “did not show any activity above baseline levels”.
